This series deals with MS2 coat protein. Briefly: apparent KD of MS2 coat protein; designed switch direction (-1 OFF switch, 1 ON switch): -1; higher = weaker reporter binding. The gist of the method: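 The apparent KD reported per design is the median over clusters of curve fits to normalised cluster fluorescence. The RNA switches were transcribed on Illumina chips by stalled E. coli RNA polymerase. SNAP-549-labelled MS2 coat protein was titrated from 0.7 or 1.5 nM, doubling up to 3 µM, in Tris-HCl pH 7.5 buffer containing KCl, MgCl2, BSA, DTT, tRNA and Tween-20, with no input, 200 uM small-molecule ligand, or an oligonucleotide input.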

The mark [1] stands for this setting: input ligand: microRNA oligo, concentration not stated.
Where [2] appears, read: Eterna round: R95, input ligand: FMN 200 uM.
Where [3] appears, read: Eterna round: R95, input ligand: microRNA oligo, concentration not stated.
The mark [4] stands for this setting: Eterna round: R95, input ligand: none.

For “CCGACAAGCUGCUAAGGAUACAUGAGGAUCACCCAUGUCGGUAUCCGAGAGGUAUUGAAGUCAACCAUCGCUCGUCU [Eternabot (Original) Solution 49] (Eterna round: R97, puzzle: Sensor, turn-off variant 1)”, the “apparent KD of MS2 coat protein” value is, setting by setting: (input ligand: FMN 200 uM) 167 nM; (input ligand: none) 188 nM.
On the same counts, the results for “UCCUUAUCGGUCAGGAUAUACACCCGUUUCUCCUUGUAGAAGGGACAUGAGGAUCACCCAUGUACAGUACAUUU [alecazam66] (Eterna round: R97, puzzle: Brourd's mod of Exclusion 4)” are 29.6 nM and 26.8 nM.
Take “UUGUGCACGCUGCGGUCCUACAUGAGGAUCACCCAUGUGGUCUGGUGGCGUGGGUCACCGGACUUGGCUCGUCUUGC [salish99_S_TOV1_R5_059] (Eterna round: R97, puzzle: Sensor, turn-off variant 1)”: the “apparent KD of MS2 coat protein” value (input ligand: FMN 200 uM) was found to be 22.5 nM and the “apparent KD of MS2 coat protein” value (input ligand: none) was determined as 22.8 nM.
“ACAUGUAAUGCAGGAUAUUUUACACAUGAGGAUCACCCAUGUGACCAGAGGAAUUGCUAUGAGUAGAAGAAGGGUAUGUACAUG [Ex NG2 #56] (Eterna round: R96, puzzle: Exclusion NG 2)”: the “apparent KD of MS2 coat protein” value runs as follows: (input ligand: FMN 200 uM) 78.8 nM; under setting [1], 56.7 nM; (input ligand: none) 64.4 nM.
“ACACUGCGAGGAUAUACAUGAGGAUCACCCAUGUUUCGGUAGACAAGGUUAAUUUAAGGUAGAAGGCGCGUAUU [JR_Ex3_Sub009] (Eterna round: R97, puzzle: Exclusion 3)”: the “apparent KD of MS2 coat protein” value by setting is: (input ligand: FMN 200 uM) 173 nM; (input ligand: none) 40.2 nM.
On to “GCUGGAAAAGGAUAUACAUAACGUGCGUCGGCACGAGACCUACAUGAGGAUCACCCAUGUAGAAGGUUUCCAGC [EX2 #74] (Eterna round: R97, puzzle: Exclusion 2)”, for which the “apparent KD of MS2 coat protein” value reads like this: (input ligand: FMN 200 uM) 20.9 nM; (input ligand: none) 13.6 nM.
Regarding “GAAGGUGAGCAGGAUAUCCGCGCACGAAUAUAAGGAGAAGGGCUUACAUGAGGAUCACCCAUGUAAGGUGGUAG [Rexequar] (puzzle: Exclusion 6)”, the “apparent KD of MS2 coat protein” value is 15.8 nM under setting [2], 11.9 nM under setting [3] and 11.5 nM under setting [4].
On the same counts, the results for “CCGGAAAUGCAGGAUAUCGUAUCGGAUACGAUACGAGAAGGGUAGACAUGAGGAUCACCCAUGUGUCCUACCGG [Fiskers Ex 6 - 50] (puzzle: Exclusion 6)” are 110 nM, 78.6 nM and 101 nM.
On to “AAAGGGCGUGUGAGGAUAUCGACCCGACUUCCAGUCGAGAAGGCACAUGAGGAUCACCCAUGUGAUGACAGCGA [BmEX4 B.8] (Eterna round: R97, puzzle: Brourd's mod of Exclusion 4)”, for which the “apparent KD of MS2 coat protein” value was 38.4 nM (input ligand: FMN 200 uM) and 16.2 nM (input ligand: none).
Turning to “CAGUACUGCAAGCUAUGGGACAUGAGGAUCACCCAUGUUCGUCUUAUUGAUCUAGGUACGCUGACGUACCUAGAUCU [JL-sv1-2.20 Brourd mod] (puzzle: Sensor v3, turn-off variant 1)”, the “apparent KD of MS2 coat protein” value is 16.3 nM under setting [2], 20.5 nM under setting [3] and 15.9 nM under setting [4].
Regarding “CGGAACCAGACAGGAUAUACCUGUCCGAGACAGACACACAUGAGGAUCACCCAUGUUGAUGUCAGGUAGAAGGGUCAUAAAGAC [Eternabot solution 7] (Eterna round: R96, puzzle: Exclusion NG 2)”, the “apparent KD of MS2 coat protein” value runs as follows: (input ligand: FMN 200 uM) 9.86 nM; under setting [1], 10.3 nM; (input ligand: none) 11.5 nM.
As to “GACUAGGGAGGAUAUAUUUGCAGUGUACCUCGGGUGAUCGCACUUGAGGAUCACCCAAGUAGAAGGCUCGAGGG [EX2 #26] (Eterna round: R97, puzzle: Exclusion 2)”, the “apparent KD of MS2 coat protein” value runs as follows: (input ligand: FMN 200 uM) 41.9 nM; (input ligand: none) 46.5 nM.
On to “ACAAGCUUUACGAUCCUCUACAUGAGGAUCACCCAUGUGCUCGUAUUGUUUAGUACUAUCACGAAAGUGAUAGUACA [Sensor, turn off variant 1 v.5] (Eterna round: R97, puzzle: Sensor, turn-off variant 1)”, for which the “apparent KD of MS2 coat protein” value stood at 467 nM (input ligand: FMN 200 uM) and 1090 nM (input ligand: none).
Turning to “CUUUUGUGAGGAUAUUAGUUGUAAAUAAAUAAAAUUACUACUGAGAAGGCACAUGAGGAUCACCCAUGUUCCUC [salish99_ex4_r3_049] (puzzle: Exclusion 4)”, the “apparent KD of MS2 coat protein” value under setting [3] came out at 33.2 nM.
With “CGAUGUAACACAGGAUAUCAUCGCAACUGACGUUGAGAAGGGUGACAUGAGGAUCACCCAUGUGAUUUCUCAAUAUUAUACAUC [Prohibition 82 - Jieux - Exclusion NG 1] (Eterna round: R96, puzzle: Exclusion NG 1)”, the “apparent KD of MS2 coat protein” value (input ligand: FMN 200 uM) came out at 715 nM, the “apparent KD of MS2 coat protein” value under setting [1] was 830 nM and the “apparent KD of MS2 coat protein” value (input ligand: none) is 1390 nM.
In the case of “UAAUGUAUAUAGGAUAUCUAGCUGGUAACAGCUAGAGAAGGAUGUACAUGAGGAUCACCCAUGUAAAUCGAUCA [Ex6/11-A2] (Eterna round: R97, puzzle: Exclusion 6)”, the “apparent KD of MS2 coat protein” value runs as follows: (input ligand: FMN 200 uM) 83.3 nM; (input ligand: none) 24.4 nM.
On the same counts, the results for “GCAAGCAGCUUGGAAUGAGACAUGAGGAUCACCCAUGUUCAGCACAAAGCCUUCAAUCAUCAGCUCGAAAGUAAAUG [Eternabot (L2) Solution 16] (Eterna round: R97, puzzle: Sensor, turn-off variant 1)” are 14.7 nM and 16.3 nM.
Take “AGAUCCUGAGUCAGGAUAUAGAGACGGUAGUCGGGCUAGAAGGGACAUGAGGAUCACCCAUGUGGGUUCUUGCC [Rilalera] (puzzle: Brourd's mod of Exclusion 4)”: under setting [3], the “apparent KD of MS2 coat protein” value is 10.1 nM.
With “CGUAGACAUGAGGAUCACCCAUGUGAGGAUAUGCUUUUUUAUUAGAAAUGGUGGAGGAGCAGAAGGCACGUGCG [-21.6, -21.5 kcal, 28% A] (Eterna round: R97, puzzle: Exclusion 1)”, the “apparent KD of MS2 coat protein” value reads like this: (input ligand: FMN 200 uM) 160 nM; (input ligand: none) 59.7 nM.
Consider “AAUAACUGAGGAUAUACUAAAAUAUGAAUAAAAUAAAUAAAACAUGAGGAUCACCCAUGUAGAAGGCAGAAUAA [JMF's Not so obvious solution 8] (puzzle: Exclusion 2)”, for which the “apparent KD of MS2 coat protein” value by setting is: under setting [2], 21.4 nM; under setting [3], 23.3 nM; under setting [4], 21.5 nM.
“AGAGUGCUGCGAGGAUAUACAUGAGGAUCACCCAUGUAAUCGUGUGAGGCAAAGCCUCACACGAUGUAGAAGGCGCAGUACUCA [Mat - Exclusion NG 2 - Mod of JL - D24] (Eterna round: R96, puzzle: Exclusion NG 2)”: the “apparent KD of MS2 coat protein” value was 13.1 nM (input ligand: FMN 200 uM), 12.8 nM under setting [1] and 16.7 nM (input ligand: none).
In the case of “GCUGGUCAAGGAUAUAUAUGACGUGCUUCGGCACGAAGGUCACAUGAGGAUCACCCAUGUAGAAGGUGACCAGC [E2/9-C1] (Eterna round: R97, puzzle: Exclusion 2)”, the “apparent KD of MS2 coat protein” value runs as follows: (input ligand: FMN 200 uM) 304 nM; (input ligand: none) 39.7 nM.
On the same counts, the results for “CUUUUGUGAGGAUAUUAGUAGUAAAUGAAUAAAAUUAUUACUGAGAAGGUACAUGAGGAUCACCCAUGUUCCUU [Mat - Exclusion 4 - Eli Mod - D20] (Eterna round: R97, puzzle: Exclusion 4)” are 16.3 nM and 14.3 nM.

These data come from the supplement of paper PMC9170038.
